Reference: publication PMC5469345, “High Sensitivity Determination of TNF-α for Early Diagnosis of Neonatal Infections with a Novel and Reusable Electrochemical Sensor”

Target: TNF-α (UniProt P01375 77-233)
Test: electrochemical sensor (CV/EIS/DPV), displacement of aptamer from capture probe; aptamer pre-hybridized to capture probe T1 on gold electrode; 0.01 M PBS, 37 °C; TNF-α incubation in 0.01 M PBS pH 7.4, 37 °C, 2 h (1 h optimal); binding buffer listed as 10 mM Tris-HCl pH 7.4, 10 mM KCl, 10 mM MgCl2; DPV in 10x PBS
Settings: protein: commercial; chain copies: 3; single strand; on the sensor pre-hybridized to thiolated capture probe T1 (S1), from which TNF-α displaces it

Chain of TNF-α (P01375 77-233): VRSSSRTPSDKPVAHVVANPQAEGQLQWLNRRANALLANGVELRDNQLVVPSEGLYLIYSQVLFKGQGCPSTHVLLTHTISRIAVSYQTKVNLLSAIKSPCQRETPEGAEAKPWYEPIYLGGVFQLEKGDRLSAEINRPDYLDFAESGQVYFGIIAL

TTTTTTTTTTTTTTTTGGTGGATGGCGCAGTCGGCGACAA (ssDNA) [TNF-α aptamer (T2)]
binding result: binds
